Consider seven substances from patent US20250320281A1.

What all share (assay): cell-based or functional assay
The target of assay [1] is HIV-1 SF162 Env on pseudotyped virus (HIV-1 isolate SF162).
In assay [2] the target is HIV-1 Env of isolate DU156 (clade C pseudovirus) (HIV-1).
For assay [3], the target named is HIV-1 MGRM-A-010 envelope glycoprotein (Env) on pseudovirus (HIV-1).
Assay [4] deals with HIV-1 Env of pseudovirus MGRM-AG-009 (subtype AG) (HIV-1).
Assay [5] addresses HIV-1 Env of isolate MG RM-D-011 (clade D), on pseudovirus (HIV-1).
Assay [6] addresses HIV-1 Env of pseudovirus MGRM-A-003 (subtype A) (HIV-1).
In assay [7] the target is HIV-1 Env of isolate MGRM-F1-013 (clade F), on pseudovirus (HIV-1).
The target of assay [8] is HIV-1 Env of isolate MG RM-D-005 (clade D), on pseudovirus (HIV-1).
Assay [9] concerns the target HIV-1 Env of isolate MGRM-C-028 (clade C pseudovirus) (HIV-1).
In assay [10] the target is HIV-1 Env of isolate 92UG114 (clade D), on pseudovirus (HIV-1).
Assay [11] addresses HIV-1 Env of isolate MGRM-Chronic-B-023 (HIV-1).
The target in assay [12] is HIV-1 Env of pseudovirus 92WR009 (subtype A) (HIV-1).
Assay [13] deals with HIV-1 Env of pseudovirus 93WR029 (subtype A) (HIV-1).
Assay [14] deals with HIV-1 Env of isolate MG RM-D-024 (clade D), on pseudovirus (HIV-1).
The target in assay [15] is HIV-1 Env of pseudovirus MGRM-A-007 (subtype A) (HIV-1).
In assay [16] the target is HIV-1 Env of isolate MGRM-F1-004 (clade F), on pseudovirus (HIV-1).
For assay [17], the target named is HIV-1 Env of isolate MGRM-Chronic-B-017 (HIV-1).
Assay [18] has as its target HIV-1 Env of isolate 92UG046 (clade D), on pseudovirus (HIV-1).
Assay [19] addresses HIV-1 Env of isolate APV6 (HIV-1).
Assay [20] has as its target HIV-1 Env of isolate MGRM-F1-010 (clade F), on pseudovirus (HIV-1).
The target in assay [21] is HIV-1 Env of isolate MGRM-F1-012 (clade F), on pseudovirus (HIV-1).
The target of assay [22] is HIV-1 Env of pseudovirus MGRM-A-009 (subtype A) (HIV-1).
For assay [23], the target named is HIV-1 Env of pseudovirus 92WR024 (subtype A) (HIV-1).
Assay [24] deals with HIV-1 Env of isolate MG RM-D-003 (clade D), on pseudovirus (HIV-1).
For assay [25], the target named is HIV-1 Env of pseudovirus MGRM-A-005 (subtype A) (HIV-1).
Assay [26] deals with HIV-1 Env of isolate MGRM-Chronic-B-012 (HIV-1).
Assay [27] addresses HIV-1 Env of isolate MGRM-C-026 (clade C pseudovirus) (HIV-1).
Assay [28] deals with HIV-1 Env of isolate MGRM-Chronic-B-008 (HIV-1).
Assay [29] addresses HIV-1 Env of isolate MG RM-D-020 (clade D), on pseudovirus (HIV-1).
The target in assay [30] is HIV-1 Env of isolate MGRM-C-025 (clade C pseudovirus) (HIV-1).
The target in assay [31] is HIV-1 Env of isolate MG RM-D-008 (clade D), on pseudovirus (HIV-1).
Assay [32] has as its target HIV-1 Env of isolate MGRM-Chronic-B-010 (HIV-1).
Assay [33] concerns the target HIV-1 Env of pseudovirus 94UG103 (subtype A) (HIV-1).
Assay [34] has as its target HIV-1 Env of isolate MGRM-Chronic-B-018 (HIV-1).
In assay [35] the target is HIV-1 Env of isolate MGRM-C-024 (clade C pseudovirus) (HIV-1).
Assay [36] has as its target HIV-1 Env of isolate MGRM-Chronic-B-004 (HIV-1).
The target in assay [37] is HIV-1 Env of isolate MGRM-F1-016 (clade F), on pseudovirus (HIV-1).
Assay [38] deals with HIV-1 Env of pseudovirus 92WR026 (subtype A) (HIV-1).
Assay [39] concerns the target HIV-1 Env of isolate MGRM-F1-020 (clade F pseudovirus) (HIV-1).
Assay [40] concerns the target HIV-1 Env of isolate MGRM-F1-006 (clade F), on pseudovirus (HIV-1).
Assay [41] deals with HIV-1 Env of isolate MG RM-D-002 (clade D), on pseudovirus (HIV-1).
Assay [42] deals with HIV-1 Env of isolate APV17 (HIV-1).
Assay [43] concerns the target HIV-1 Env of pseudovirus MGRM-A-006 (subtype A) (HIV-1).
The target in assay [44] is HIV-1 Env of isolate MGRM-F1-015 (clade F), on pseudovirus (HIV-1).

Sequence of 1443_C16 (PG16) (TCN-116) (antibody) (VH): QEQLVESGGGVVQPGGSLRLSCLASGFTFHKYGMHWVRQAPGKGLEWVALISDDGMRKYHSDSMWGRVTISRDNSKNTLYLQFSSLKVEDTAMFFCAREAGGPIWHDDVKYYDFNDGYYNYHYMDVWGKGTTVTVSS
Sequence of 1443_C16 (PG16) (TCN-116) (antibody) (VL): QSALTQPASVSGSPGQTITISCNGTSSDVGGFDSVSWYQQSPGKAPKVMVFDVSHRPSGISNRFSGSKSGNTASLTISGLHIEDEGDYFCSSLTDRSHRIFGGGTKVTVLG

For the substance 1443_C16 (PG16) (TCN-116) (antibody), in assay [1], the Neutralizing Antibody Assay: IC50; Virus/Ab Incubation 1 hour was greater than 50 µg/mL and the Neutralizing Antibody Assay: IC50; Virus/Ab Incubation 18 hour was greater than 50 µg/mL. Also, the IC50 (neutralization, TZM-bl pseudovirus assay) in assay [2] was less than 0.01 µg/mL.

In assay [3], 4858_P08 (PGT-123) (antibody) had a neutralization IC50 of 0.492 µg/mL, a neutralization IC80 of 2.79 µg/mL, a neutralization IC90 of 6.44 µg/mL and a neutralization IC95 greater than 10 µg/mL.

Turning to 5141_B17 (PGT-126) (antibody), in assay [3], the IC50, pseudovirus neutralization was 0.0033 µg/mL; the IC80 (pseudovirus neutralization) was determined as 0.0137 µg/mL; the IC90 (pseudovirus neutralization) was 0.0316 µg/mL; the IC95 (pseudovirus neutralization) was determined as 0.0687 µg/mL.

Take VRC01 (antibody): in [4], the IC50, pseudovirus neutralization was greater than 50 µg/mL.

For 1496_C09 (PG9) (TCN-109) (antibody), the IC50 (µg/mL), pseudovirus neutralization in [5] worked out at 0.071 µg/mL; in [7] it was 1.25 µg/mL; in [8] it was 1.8 µg/mL; in assay [9], 0.067 µg/mL; in assay [10], 40.6 µg/mL; in assay [11], 0.027 µg/mL. For the same substance, the IC50 (µg/mL), pseudovirus neutralization in assay [14] was 0.038 µg/mL; in assay [16] it was 0.175 µg/mL; in assay [17], 0.688 µg/mL; in assay [18], 1.86 µg/mL; in assay [19], 0.181 µg/mL; in assay [20] it was 0.012 µg/mL. Also, the IC50 (µg/mL), pseudovirus neutralization was 0.023 µg/mL in assay [21]; 0.033 µg/mL in assay [24]; 0.2 µg/mL in assay [26]; 0.06 µg/mL in [27]; 8.78 µg/mL in [28]; 1.67 µg/mL in [29]. In addition, the IC50 (µg/mL), pseudovirus neutralization is 0.148 µg/mL in [30]; 11.5 µg/mL in assay [31]; 0.004 µg/mL in [32]; 0.216 µg/mL in assay [34]; 0.227 µg/mL in assay [35]; 0.533 µg/mL in assay [36]. Besides, the IC50 (µg/mL), pseudovirus neutralization was 0.518 µg/mL in [37]; 6.4 µg/mL in assay [39]; 7.25 µg/mL in assay [40]; 0.021 µg/mL in [41]; 34.8 µg/mL in [42]. Moreover, the IC50, pseudovirus neutralization in [6] amounted to 1.94 µg/mL; in assay [12], 0.05 µg/mL; in assay [13] it was 0.69 µg/mL; in [15] it was 1.06 µg/mL; in assay [22] it was 0.023 µg/mL; in assay [23], 0.258 µg/mL. Further, the figures for the IC50, pseudovirus neutralization in assay [25], in assay [33] and in assay [38] were 0.75 µg/mL, 0.34 µg/mL and 0.164 µg/mL, respectively.

Turning to PGV04 (antibody), the IC50 (µg/mL), pseudovirus neutralization in assay [5] is 0.025 µg/mL; in assay [7], 0.084 µg/mL; in [8], greater than 50 µg/mL; in [9] it was 0.149 µg/mL; in assay [10], 0.461 µg/mL; in assay [11], 0.139 µg/mL. Besides, the IC50 (µg/mL), pseudovirus neutralization in [14] was greater than 50 µg/mL; in assay [16], 0.58 µg/mL; in [17], 0.129 µg/mL; in [18] it was 22.4 µg/mL; in [19] it was 24.2 µg/mL; in [20], 0.184 µg/mL. The IC50 (µg/mL), pseudovirus neutralization in assay [21] is 0.25 µg/mL; in [24], greater than 50 µg/mL; in assay [26], greater than 50 µg/mL; in assay [44], 0.179 µg/mL; in [27] it was 0.303 µg/mL; in assay [28], 0.166 µg/mL. Moreover, the IC50 (µg/mL), pseudovirus neutralization in [29] was 0.097 µg/mL; in [30], greater than 50 µg/mL; in [31], 3.56 µg/mL; in assay [32] it was 0.744 µg/mL; in assay [34], 0.164 µg/mL; in assay [35] it was greater than 50 µg/mL. The IC50 (µg/mL), pseudovirus neutralization in assay [36] is 0.047 µg/mL; in assay [37], 0.268 µg/mL; in [39], 5.99 µg/mL; in assay [40], greater than 50 µg/mL; in [41] it was 0.322 µg/mL; in assay [42], 0.309 µg/mL. Moreover, the IC50, pseudovirus neutralization in assay [6] was 0.128 µg/mL; in assay [12] it was 0.108 µg/mL; in assay [13] it was 0.54 µg/mL; in assay [15], 7.21 µg/mL; in assay [22], 0.033 µg/mL; in [23] it was 0.31 µg/mL. Moreover, the IC50, pseudovirus neutralization in assay [25] amounted to 0.134 µg/mL; in assay [43], 0.244 µg/mL; in [33], 0.202 µg/mL; in assay [38], 0.14 µg/mL.

In assay [1], 1495_C14 (PGC14) (antibody) came in with a Neutralizing Antibody Assay: IC50; Virus/Ab Incubation 1 hour of 0.0069 µg/mL and a Neutralizing Antibody Assay: IC50; Virus/Ab Incubation 18 hour of less than 0.0025 µg/mL.
